Source: patent publication US11707511B2, “Vaccine compositions and methods of using the same” (The Board of Supervisors of Louisiana State University and …, priority 2017, dated 2023)

B1: 10E7E2: IgG1 mAb of hybridoma 10E7E2, specific for GPV-P3; VH SEQ ID NO: 72, VL SEQ ID NO: 74 (antibody, V domains shown)
VH: QVQLKQSGPGLVQPSQSLSITCTVSGFSLTSYGVHWVRQSPGKGLEWLGVIWSGGTTDYNAAFISRLSISKDNSKSQVFFKMNSLQANDTAIYYCARGGHRGFAYWGQGTLVTVSA
VL: DIVMTQSHKFMSTSVGDRVSITCKASQDVGTAVAWYQQKPGQSPKLLIYWASTRHTGVPDRFTGSGSGTDFTLTISNVQSEDLADYFCQQYSSYPLTFGAGTKLELK
B2: 1D4H5: IgG1 mAb of hybridoma 1D4H5, specific for GPV-M1; VH SEQ ID NO: 64, VL SEQ ID NO: 66 (antibody, V domains shown)
VH: MYLGLNCVFIVFLLKGVQSEVKLEESGGGLVQPGGSMKLSCVASGFTFSNYWMNWVRQSPEKGLEWVAEIRLKSNNYATHYAESVKGRFTISSDDSKSSVYLQMNNLRAEDTGIYYCSTGNYWGQGTTLTVSS
VL: MDFQMQIISLLLISVTVIVSNGEIVLTQSPTTMAASPGEKITITCSASSTISSNYLHWYQQKPGFSPKLLIYRTSNLASGVPARFSGSGSGTSYSLTIGTMEAEDVATYYCQQGSTISRTFGSGTKLEIK

Assays:
C. auris AR-0386 = assay: Passive transfer of mAbs or two mAbs in combination in A/J mouse model of invasive C. auris infection; type: in vivo, Candida auris
Method: A. Complement protein C5-defecient A/J mice were treated with one of the five mAb or with DPBS as a vehicle control. The following day, mice were challenged with 1×10^8 C. auris cells/100 ul DPBS dose per mouse. […] B. Fungal burdens in the kidneys (top), heard (center), and brain (bottom).
Identified protective mAbs were obtained by use of standard hybridoma technique and purified by use of protein A/G. A/J mice were given an i.p. dose of either single mAb or two mAbs in combination 24 hours before hematogensous challenge with a lethal dose (2×108) of C. auris AR-0386 live cells. Mice received either 9G2F5 alone or 6H1G8 alone or 9F2G5 and 3H7E3 in combination had 40% survival rate respectively, with prolonged survival as compared to control animals that received DPBS buffer control.
Evaluation and validation of a panel of peptide-specific monoclonal antibodies (mAbs) as a passive immunization strategy protect against invasive C. auris infection in established A/J mouse model of human disease.
The monoclonal antibodies used in this experiment were: • 6H1G8 (IgG2b), α-Hwp1 (Hyphal wall protein) • 3E2G2 (IgG2b), α-Fba (Fructose bisphosphate aldolase) • 10E7E2 (IgG1), α-GPV-P3 (General peptide vaccine 3 from Phosphoglycerate kinase) • 9F2G5 (IgG2a), α-Pgk1 (Phosphoglycerate kinase) • 3H7E3 (IgG1), α-Met6 (Methyltetrahydropteroyltriglutamate)

[1] = tested on: C. parapsilosis ATCC MYA-4646; assay: Passive transfer of mAbs, neutropenic mouse model of disseminated candidiasis by C. parapsilosis; type: in vivo; conditions: Table 6; neutropenic BALB/c mice; mAb i.p. 4 h before 5×10^6 C. parapsilosis i.v.
Description: Induction of neutropenia. Although C. albicans remains the dominant disease-causing pathogen of this genus, rates of infections caused by non-albicans Candida (NAC) species are increasing. Among these Candida species, only C. albicans is pathogenic in the normal mouse model. To test vaccine and mAbs against non-albicans Candida spp, we have developed neutropenic murine models of disseminated infection by C. glabrata, C. tropicalis, and C. parapsilosis. Before challenge, BLAB/c mice were made neutropenic by intraperitoneal receipt of a 200 mg/kg dose of cyclophosphamide (CY; Sigma-Aldrich) at day −3. The i.p. injection (150 mg/kg) is repeated every 10 days after infection (i.e., at days 10, 20, 30, and 40 post-infection) in order to maintain low neutrophil counts for the entire experimental procedure. […] To evaluate leukocytopenia in these mice, blood samples were collected from tail veins 3 days after each CY or saline injection (n=10 in each group). Total leukocyte and differential cell counts were determined on a hemocytometer and by Wright-Giemsa staining. Body weights of the mice were also measured and compared for 14 days after the first CY or saline injection (n=10 in each group).
Fungal challenge dose and assessment ofprotection. Although C. albicans remains the dominant disease-causing pathogen of this genus, rates of infections caused by non-albicans Candida (NAC) species are increasing (18). Among these Candida species, only C. albicans is pathogenic in the normal mouse model (19,20). We have developed neutropenic murine models of disseminated infection by C. glabrata, C. tropicalis, and C. parapsilosis. […] In details, mice of different experimental groups (five mice per group) were intravenously infected with 5×10^6 viable C. parapsilosis ATCC MYA-4646 (A), 1×108 C. glabrata ATCC 2001 cells (B) and 1×107 C. tropicalis ATCC 28775 cells (C) in 0.1 ml DPBS. As controls, immunocompetent mice were challenged with the same dose of each Candida strain tested.
Passive transfer of MAbs by intraperitoneal (i.p.) route. The preventive effect of peptide-specific mAbs listed in Table 3 and Table 4 in naïve mice was examined by passive transfer experiments. Each mAb was appropriately diluted in DPBS to give a 40,000-100,000 ELISA titer against each corresponding specific peptide coated on the plate. For testing, mice received 0.5 ml of each mAb or 1 ml of two mAbs in combination (0.5 ml of each) intraperitoneally. Table 6 and Table 7 have listed all the peptide-specific mAb combinations that have been tested, as well as the protective efficacy of each mAb cocktail as compared to single mAb treatment. […] For animal groups that were challenged non-albicans candida species, determined optimal challenge doses were applied for each candida strain. […]

Row | Molecule | fungal burdens in targeted organs (C. auris AR-0386; A/J mouse model, in words) | protection against C. auris invasive infection (C. auris AR-0386; A/J mouse model, in words) | survival (C. auris AR-0386; FIG. 15A, A/J mice, 1×10^8 C. auris cells, experiment terminated 40 days post challenge) [%] | Protection against C. auris (C. auris AR-0386; Table 19, A/J strain mice) | Protection against C. auris (grade word) (C. auris AR-0386; Table 19, A/J strain mice) | Protection against C. parapsilosis [1] | Protection against C. parapsilosis (grade word) [1]
1 | B1 | lower fungal loads | protect against C. auris invasive infection | 25 | 80-100% | High | (60-80%) | High
2 | B2 |  |  |  |  |  | (70-80%) | High
